Patent publication US8975044B2, “Polynucleotides encoding for frizzled-binding agents and uses thereof” (OncoMed Pharmaceuticals, Inc., priority 2008, dated 2015)

Columns and labels:
PN4 tumors = assay: Alcian blue staining of treated PN4 tumor sections; assay type: in vivo, mice; conditions: relative to controls and the gemcitabine alone group; data not shown
Excerpt: Another characteristic of endocrine, secretory or ductal cells is the production of mucin and these cells can be detected by alcian blue staining (van Es et al. 2005. Nature 435 959-63). It was observed during harvesting and processing of tumors that the 18R5 treated tumors were much more mucinous than control treated tumors. Therefore, PN4 tumors sections from mice treated with control antibody, gemcitabine alone, 18R5 alone, or 18R5 plus gemcitabine were stained with alcian blue.

OMP-PN13 cells = assay: Tumorgenic potential of Muc16-positive cells sorted from 18R5-treated OMP-PN13 tumors; assay type: in vivo, NOD/SCID mice; conditions: 75 cells per mouse, 10 mice; no tumor from Muc16+ cells, 7 of 10 from Muc16− cells
Procedure: OMP-PN13-bearing mice were treated with 18R5 according to the protocol described in Example 21. Mice were euthanized 12 days after initiation of the Ab treatment. Tumors were harvested and processed to obtain a single cell suspension using collagenase III to digest the tissues. Mouse stromal cells were stained with a biotinylated anti-H-2 Kd antibody and a biotinylated anti-CD45 antibody. They were then incubated with magnetic beads conjugated to streptavidin (Thermo MagnaBind) and depleted using a Dynal magnet. The resulting lin-depleted tumor cells were stained with an anti-Muc16 mAb detected with a PE-conjugated secondary Ab. Muc16− positive and Muc16− negative cells were sorted using an ARIA FACS machine ran by the DIVA software. Cells were re-injected subcutaneously in the left flank of NOD/SCID mice for comparison of their tumorgenic potentials. Each cell type was injected into 10 mice. Each mouse received 75 cells. Representative pictures of tumors resulting from the injection of Muc16− (upper panel) and Muc16+(lower panel) cells are shown in FIG. 52B. No tumor grew after injection of the Muc16+cells, while 7 of the 10 mice injected with the Muc16− cells developed tumors.

FZD8 binding to Wnt3A = molecular target: T1, FZD8 binding to Wnt3A (Homo sapiens, UniProt Q9H461); assay: Blocking of FZD8-Fc binding to Wnt3A (protein A depletion, STF293 reporter readout); assay type: biochemical; conditions: co-incubation with FZD8-Fc and Wnt3A conditioned medium, 2 hrs at 4° C., protein A beads removed
T1 construct: amino acids 1-157 of FZD8 linked in-frame to human IgG1 Fc
T1 sequence (Q9H461 28-157): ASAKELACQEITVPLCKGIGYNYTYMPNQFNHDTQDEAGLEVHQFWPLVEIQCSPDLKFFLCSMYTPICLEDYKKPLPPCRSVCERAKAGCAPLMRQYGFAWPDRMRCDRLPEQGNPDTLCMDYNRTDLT
Procedure: To assess the ability of 18R8 to block the binding of FZD to Wnt, 2 μl of 1.32 μg/μl soluble FZD8-Fc containing the Fri domain (amino acids 1-157 of FZD8 linked in-frame to human IgG1 Fc) was added to culture medium to bind Wnt3A (added as 20 μl of Wnt3A conditioned medium) either alone or in the presence of the 18R8 IgG antibody (added as 4 μl of 3.71 μg/μl). The mixtures were incubated either alone or in the presence of Protein A sepharose beads (GE Healthcare products; 20 μl of 50% solution in PBS) for two hrs at 4° C. After the incubation, the protein A beads (and any proteins complexed to the protein A beads) in each sample were removed by spinning and the supernatant was assayed for ability to induce 8×TCF luciferase activity. The supernatant was added to STF293 cells, which stably express 8×TCF (eight copies of the TCF-binding domain upstream of a firefly luciferase reporter gene) to measure canonical Wnt signaling levels and which were cultured in DMEM supplemented with antibiotics and 10% FCS. Eighteen hours following treatment of the STF293 cells, luciferase levels were measured using a dual luciferase assay kit (Promega; Madison, Wis.).

B1: 18R5: human anti-FZD antibody; VH SEQ ID NO:10 (as 18R8), VL SEQ ID NO:14; binds FZD1, 2, 5, 7, 8 (antibody, V domains shown)
VH: EVQLVESGGGLVQPGGSLRLSCAASGFTFSHYTLSWVRQAPGKGLEWVSVISGDGSYTYYADSVKGRFTISSDNSKNTLYLQMNSLRAEDTAVYYCARNFIKYVFANWGQGTLVTVSS
VL: DIELTQPPSVSVAPGQTARISCSGDNIGSFYVHWYQQKPGQAPVLVIYDKSNRPSGIPERFSGSNSGNTATLTISGTQAEDEADYYCQSYANTLSLVFGGGTKLTVLG
modifications: 18R5/18R8 heavy chain variable region (VH); 18R5 light chain variable region (VL)
alcian blue staining (PN4 tumors): clear increase in alcian blue staining
tumorgenicity of 18R5-induced Muc16+ cells (OMP-PN13 cells): non-tumorgenic

B2: 18R8: human anti-FZD antibody from phage display; VH SEQ ID NO:10, VL SEQ ID NO:12; binds FZD1, 2, 5, 7, 8 (antibody, V domains shown)
VH: EVQLVESGGGLVQPGGSLRLSCAASGFTFSHYTLSWVRQAPGKGLEWVSVISGDGSYTYYADSVKGRFTISSDNSKNTLYLQMNSLRAEDTAVYYCARNFIKYVFANWGQGTLVTVSS
VL: DIELTQPPSVSVAPGQTARISCSGDKLGKKYASWYQQKPGQAPVLVIYEKDNRPSGIPERFSGSNSGNTATLTISGTQAEDEADYYCSSFAGNSLEVFGGGTKLTVLG
modifications: 18R5/18R8 heavy chain variable region (VH); 18R8 light chain variable region (VL)
blocking of FZD8 binding to Wnt3A (FZD8 binding to Wnt3A): blocked the ability of FZD8 to bind to Wnt3A
